Literature values, collected in PMC8821138 (Food chemistry, 2021).

Settings: ref Parisi et al., 2020; Yagami et al., 2000

## NaD1: defensin, literature example of digestion resistance (RECKTESNTFPGICITKPPCRKACISEKFTDGHCSKILRRCLCTKPC; UniProt Q8GTM0 26-72, looked up)
  Resistance in in vitro gastrointestinal digestions: demonstrated resistance
